Measurements published in the nanobody polyreactivity screen of Harvey et al. (2022).

Assay: yeast display, Sf9 membrane polyspecificity reagent, FACS + sequencing; frameworks hold sequencing errors
In short: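 Sorting gates, low and high (top ~1%), were placed on anti-HA fluorescence to track expression and on streptavidin fluorescence to track reagent binding. A clone's polyreactivity label is taken from the gate it came out of. The reagent was 10% biotinylated, detergent-solubilized Sf9 membrane, applied for 1 hour at 4 °C to galactose-induced yeast display cells.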

| Sequence | polyreactivity (PSR sort gate) |
| --- | --- |
| QVQLVESGGGLVQAGGSLRLSCAASGSISSVYGMGWYRQAPGKERELVAAITSNGGSTYYADSVKGRFTISRDNAKNTVYLQMNSMKPEDTAVYYCAAKYGSRGYYSRGRYYWGQGTQVTVSS | high polyreactivity |
| QVQLVESGGGLVQAGGSLRLSCAASGSIFYGYTMGWYRQAPGKERELVAAITYRGGRTYYADSVKGRFTISRDNAKNTDYLQMNSLKPEDTAVYYCAARYDYFSSKYGYWGQGTQVTVSS | high polyreactivity |
| QVQLVESGGGLVQAGGSLRLSCAASGRTFAYYAMGWYRQAPGKERELVAAITTSGTRTYYADSVKGRFTISRDTAKNTVYLQMNSLKPEDTAVYSCAARYRYQYEFDYWGQGTQVTVSS | high polyreactivity |
| QVQLVESGGGLVQAGGSLRLSCAASGSNLVQNAMGWYRQAPGKERELVAAINWSGASTYYADSVKGRFTISRDNAKNTVYLQMNSLKPEDTAVYYCATVTLFFTDYYSWADVYTEYDYWGQGTQVTVSS | low polyreactivity |
| QVQLVESGGGLVQAGGSLRLSCAASGRTFRLNAMGWYRQAPGKERELVAGIRVRAGTTYYADSVKGRFTISRDNAKNTVYLQRNSLKPEDTAVYYCAAESYSRSRKYDYWGQGTQVTVSS | high polyreactivity |
| QVQLVESGGGLVQAGGSLRLSCAASGYTFSNNAMGWYRQAPGKERELVAAISRSTGSTYYADSVKGRFTISRDYAKNTVYLQMNSLKPEDTAVYYCAVYRHGYGYNYWGQGTQVTVSS | high polyreactivity |
| QVQLVESGGGLVQAGGSLRLSCAASGLTFAYYVMGSYRQAPWKERELVAAISRRGGSTYYADSVKGRFTISRDNAKNTVYLQMNSLKPEDTAVYYCNTDWPLPNGGEPGYWGQGTQVTVSS | high polyreactivity |
| QVQLVESGGRLVQAGGSLRLSCAACGGIIWYNTMGWYRQAPGKERELVAAISDSGGRTSYADSVKGRFTISRDNAKNTVYLQMNSLKPEDTAVYYCNVDYVVSRGFIYRVDYWGQGTQVTVSS | low polyreactivity |
| QVQLVESGGGLVQAGGSLRLSCAASGLTFLVNAMGWYRQAPGKEREFVSVITTDGGGTYYADSVKGRFTISRDNAKNTVYLQMNSLKPEDTAVYYCAAESKYRTAATSYRLDYDYWGQGTQVTVSS | low polyreactivity |
| QVQLVESGGGLVQAGGRLRLSCAASGSTFAIYGMGWYRQAPGKERELVAGITRGGSTNYADSVKGRFTISRDNAKNTVYLQMNSLKPEDTAVYYCNSPFGVRRFKTKGRSHYEYWGQGTQVTVSS | high polyreactivity |
| QVQLVESGGGLVQAGGSLRLSCAASGSILYANAMGWYRQAPGKDRELVAAISARGTSTYYADSVKGRFTISRDNAKNTVYLQMNSLKPEDTAVYYCAAYVRKKLPSALMNYWGQGTQVTVSS | high polyreactivity |
| QVQLVESGGGLVQAGGSLRLSCAASGRTFKSYAMGWYRQAPGKERELVATITRDGRTNYADSVKGRFTISRDNAKNTVYLQMNSLKPEDTAVYYCNADSRYRYDYWGLGTQVTVSS | low polyreactivity |
| QVQLVESGGGLVQAGGSLRLSCAASGSTFDTNAMGWYRQAPGKERELVAAISWSRDRTYYADSVKGRFTISRDNAKNTVYLQMNSLNPEDTAVYYCNAYLSFRRQYGYWGQGTQGTVSS | high polyreactivity |
| QVQLVESGGGLVQAGGSLRLSCAASGSTFSVNAMGWYRQAPGKEREMVAAISSTGSTKYADSVKGRFTISRDNAKNTVYLQMNSLKPEDTAVYCAASNADYEYDPFSVWYFSPYDYWGQGTQVTVSS | low polyreactivity |
| QVQLVESGGGLVQAGGSLRLSCAASGSTFYYNTMGWYRQAPGKERELVAAISSSGGTTYYADSVKGRFTISRDNAKNTVYLQMNSLKPEDTAVYYCNVATIWYSYARGYGYWGQGTQVTVSS | high polyreactivity |
| QVQLVESGGGLVQAGGSLRLSCAASGRTFYKYAMGWYRQAPGKERELVAAISGGGTTNYADSVKGRFTISRDNAKNTVYLQMNSLKPEDTAVYYCNAARTRWATGYDYWGQGTQVTVSS | low polyreactivity |
| QVQLVESGGGLVQSGGSLRLSCAASGRIFVPNAMGWYRQAPGKERELVAAITGSGGSTYADSVKGRFTISRDNAKNTVYLQMNSLNPEDTAVYYCAKKTWYSYYWGQGTQVTVSS | high polyreactivity |
| QVQHVESGGGLVQAGGSLRLSCAASGSTSGKYAMGWYRQAPGKERELVAGITKGGGGTYYADSVKGRFTISRDNAKNTVYLQLNSLKPEVTAVYYCAKYYGSGYYIYDYWGQGTQVTVSS | low polyreactivity |
| QVQLVESGGGLVQAGGSLRLSCAASGSIFESNDMGWYRQAPGKERELVAAYADSVKGRFTISRDNAKNTVYLQMNSLKPEDTAVYYCAKSLSLYVVPLYEYWGQGTQVTVSS | low polyreactivity |
| QVQLVESGGGLVQAGGSLRLSFAASGRTFYIYAMGLYRQDPGKEREMVAAITYGGGRTFYADSVKGRFTISRDNAKYTVYLQMNSLKPEDTAVYYCAKTDTYPRYGRGYDYWGQGTQVTVSS | high polyreactivity |
| QVQLVESGGGLVQAGGILRLSCAASGSIFYGNDMGWYRQEPGKEREFVAGISWSGGSTYYADSVKGRFTISRDNAKNTVYVQMNSLKPEETAVYYCAAVRWGSYTLSDDYWGQGTQVTVSS | low polyreactivity |
| QVQLVESGGGLVQAGGSLRLICAASGIIFVGYAMGWYRQAPGKERELVAAIDGTGDSTYYADSVKGRFTISRDNAKNTVYLQMNSLKPEDTAVYYCDAEYDYRWWYGYDYWGQATQVTVSS | high polyreactivity |

| Sequence | polyreactivity (PSR sort gate) |
| --- | --- |
| QVQLVESGGGLVQAGGILRLSCAASGSIFGSYAMGWYRQAPGKERELVAGITYRGSSTYYADSVKGRFTISRDNAKNTVYLQMNSLKPEDTAVYYCAADPVFDEYDYWGQGTQVTVSS | low polyreactivity |
| QVQLVESVGGLVKAGGRLRLSCAASGRIFPPNALACSRQAPGKERELVADNNFSGDSTYYADSVKGRFTISRDNAKNTVYLQMNSLKPEDTSVYYCAAVISLVSYYYWGQATQVTVSS | low polyreactivity |
| QVQLVESGGGLVQAGGSLRLSCAASGRTFNYYAMGWYRPAPGKERELVAAISGSGGRTYYADSVKGRFTISRDNAKNNVYLQMNSLKPVDTAVYYCNADVGKYPYAHTYWARRYYYWGQGTQVTVSS | high polyreactivity |
| QVQLVESGGGLVQAGGSLRLSCAASGRTFVANVKGWYRQAPGKERELVAGISTRGGRTYYADSVKGRFTISRDNAKNTVYLQMNSLKPEDTAVYYCAVRHYRDSTPRGAYQRYDYWGQGTQVTVSS | low polyreactivity |
| QVQLVESGGGLVQAGGSLRLICAASGRIFYVYAMGWYRQAPGKERELVAAITSGGSTYYADSVKGRFTISRDNAKNTVYLQMNSLKPEDTAVYYCAAYNRGRFRPYRFEYWGQGTQVTVSS | high polyreactivity |
| QVQLVESGGGLVQAGGSLRLSCAASGITFSSYTMGGYRQAPGKERELVARINSGGTTNYADSVKGRFTISRDNAKNTVYLQMNSLKPEDTAVFYCAAEWVSWRWAHKFDYWGQGTQVTVSS | high polyreactivity |
| QVQLVESGGGLVQAGGSLRLSCAASGRIFGPNDMGWYRQAPGKDRELVAAISWSGSSTRYADSVKGRFTISRDNAKNTVYLQMNSLKPEDTAGYYCAADRYWHSVVRDEDYWGQGTQVTVSS | low polyreactivity |
| QVQLVESGGGLFQAGGSLRLSCAASGSTFRHYDMAWYRQAPGKERELVAVISWGGTSTYYADSVKGRFTISRDNAKNTVYLQMHSLKPEDTGVYYCNKAYFPIFKGYEMYYWGQGTQVTVST | low polyreactivity |
| QVQLVESGGGLVQAGGSLRLSCAASGSTFGYYAMGWYRQAPGKERELVAAISYRSGSTYYADSVKGRFTISRDNAKNTVYLQMNSLKPEDTAVYYCAAVIQGQQRYEYWGQGTQVTVSS | high polyreactivity |
| QVQLVESGGGLVQAGGSLRLSCAPSGNIFYINTMGWYRPAPGKERELVAAIDASDGSTYYADSVKGRFTISRDNAKNTVYLQMNSLKPEDTAVYYCATRRGYDSVYYLYTLWYYYWGQGTQVTVSS | low polyreactivity |
| QVQLVESGGGLVQAGGSLRLSCAASGFTFGYYSMGWYSQAPGKERELVAAISSGGNTNYADSVKGRFTISRDNAKNTVYLQMNSLKPEDTAVYYCNSRSWRYYKTYSAFNYWGQGTQVTVSS | high polyreactivity |
| QVQLVESGGGLVQAGGSLRLSCPASGLIFRSYAMGRYRQAPGKERELVARISIRGGSTYYADSVKGRFTISRDNAKNTVYLQMNSLKPEDTAVYYCAAVGYLGGYRYDYWGQGTQVTVSS | high polyreactivity |
| QVQLVESGGGLVQAGGSLRLSCAASGSTFKRYAMGWYRQAPGKERELVAAITSGSSTYYADSVKGRFTISRDNAKNTVYLQMNSLKPEDTAVYYCAARRAGAKYYLYGYDYWGQGTQVTVSS | low polyreactivity |
| QVQLVESGGGLVQAGGSLRLSCAASGFTFKKYAMGWSRQAPGKERELVASITWSGGSTSYADSVKGRFTISRDNAKNSVYLQMNSLKPEDTAVFYCAAATFVYRLGYNRFDYWGQGTQVTVSS | high polyreactivity |
| QVQLVESGGGLVQAGGSLRLSCAASGFTFDSNGMGWYRQAPGKERELVAAISTGGSTYYADSVKGRFTISRDNAKTTVYIPMNSLKPEDTPVYYCARDTPYPDTWYGYWGQGTQVTVSS | low polyreactivity |
| QVQLVESGGGLVQAGGSLRVSCAASGSIFRWYTMGCYRQAPGKEREFVADISWSGGRTYYADSVKGRFTISRDNASYSVYLQMNCLKPEDTAVYYCNAEHNTRYDYWGQGTQVSVSS | low polyreactivity |
| QVQLVESGGGLVQAGGSLRLSCAASGIIFWHYAMGWYRQAPGKERELVAAISSRGGYTYYADSVKGRFTISRDNAKNTVSLQMNSLKPEDTAVYYCNAGYYTHRYRFLVQGDYWGQGTQVTVSS | high polyreactivity |
| QVQLVESGGGLVQGGGSLRLSCAASGRTLSYYAKGWYRQAPGKERELVADISWSGGSTYYADSVKGRFTISRDNAKNTVYLQMNSLKPEDTAVYYCAARVPGSIRSVGSVKQKYYYWGQGTQVTVSS | high polyreactivity |
| QVQLVESGGGLVQAGGSLRLSCAASGFTFDYYAMGWYRQAPGKERELVAAISRRGTSTYYADSVKGRFTISRDNAKNTVYLQMYSLKPEDTAVYYCNAVTSSFYNRDSDYWGQGTQVTVSS | high polyreactivity |
| QVQLVESGGGLVQAGGSLRLSCAASGRIFTRYAMGWYRQAPGKERELVAVITRSGGSTYYADSVKGRFTLSRDNAKNTVYLQMNSLKPEDTAVYYCAAKYYGEMYYWGQGTQVTVSS | low polyreactivity |
| QVQLVESGGGLVQAGGSLRLSCAASGSIFVYYGMGWYRQAPGKERELVAAISSGGSTHYADSVKGRFTISRDNAKNTVYFQMNSLKPEDTAVYYCAADRFFWLRSYPRYYYWGQGTQVTVSS | low polyreactivity |
